The values below are quoted from earlier work in publication PMC5009806.

This data set deals with amyloid beta (Homo sapiens) (UniProt P05067). Description: SPR. A general note: Surface plasmon resonance follows binding to a sensor surface in real time, without labels.

Consider Gantenerumab, for which the Kd is 0.6 nM.

In general, Kd refers to the concentration at which binding is half-saturated.
